Measurements taken from paper PMC9482650, “Quantitative fragmentomics allow affinity mapping of interactomes” (Nature Communications, 2022).
One block for each binder: values may come before it.

Experiments:
Assay in all cases: holdup assay
Set-up in all cases: key: below the threshold = too weak to quantify, mostly under pKd 3.1 to 4
GRIP2_6, Q9C0E4 = molecular target: GRIP2_6, Q9C0E4
GRIP2_5, Q9C0E4 = molecular target: GRIP2_5, Q9C0E4
TJP3_3, O95049 = molecular target: T1, TJP3_3, O95049
T1 sequence (O95049 375-456, limits assumed, looked up): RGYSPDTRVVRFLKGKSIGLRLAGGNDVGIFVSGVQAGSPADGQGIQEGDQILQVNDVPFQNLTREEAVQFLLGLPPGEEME

PDZRN3_1, Q9UPQ7 = molecular target: T2, PDZRN3_1, Q9UPQ7
T2 sequence (Q9UPQ7 244-349, limits assumed, looked up): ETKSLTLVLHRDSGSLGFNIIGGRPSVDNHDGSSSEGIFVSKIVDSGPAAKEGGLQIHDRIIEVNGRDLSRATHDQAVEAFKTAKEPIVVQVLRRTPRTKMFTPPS

ARHGEF12, Q9NZN5-2 = molecular target: ARHGEF12, Q9NZN5-2
Sequence of ARHGEF12, Q9NZN5-2 (Q9NZN5 other isoform, or with tags, fused parts or gaps): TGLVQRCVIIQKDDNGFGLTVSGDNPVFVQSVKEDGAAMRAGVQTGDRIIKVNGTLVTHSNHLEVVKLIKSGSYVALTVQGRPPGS

GRID2IP_2, A4D2P6 = molecular target: GRID2IP_2, A4D2P6
Sequence of GRID2IP_2, A4D2P6 (A4D2P6 272-370): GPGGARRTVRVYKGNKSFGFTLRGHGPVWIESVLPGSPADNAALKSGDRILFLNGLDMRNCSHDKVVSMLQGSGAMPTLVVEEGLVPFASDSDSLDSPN

GRIP1_7, Q9Y3R0 = molecular target: T3, GRIP1_7, Q9Y3R0
T3 sequence (Q9Y3R0 999-1096, limits assumed, looked up): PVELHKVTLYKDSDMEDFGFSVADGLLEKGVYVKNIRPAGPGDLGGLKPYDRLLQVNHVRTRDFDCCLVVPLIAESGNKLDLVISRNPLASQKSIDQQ

MPP2, Q14168 = molecular target: T4, MPP2, Q14168
T4 sequence (Q14168 180-250, limits assumed, looked up): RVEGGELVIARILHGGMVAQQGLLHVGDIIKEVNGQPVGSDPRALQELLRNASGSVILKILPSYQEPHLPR

GRID2IP_1, A4D2P6 = molecular target: GRID2IP_1, A4D2P6
Sequence of GRID2IP_1, A4D2P6 (A4D2P6 1-87): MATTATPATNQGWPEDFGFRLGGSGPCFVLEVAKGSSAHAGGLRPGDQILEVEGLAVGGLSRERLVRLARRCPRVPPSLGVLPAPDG

LDB3, O75112 = molecular target: LDB3, O75112
Sequence of LDB3, O75112 (O75112 1-94): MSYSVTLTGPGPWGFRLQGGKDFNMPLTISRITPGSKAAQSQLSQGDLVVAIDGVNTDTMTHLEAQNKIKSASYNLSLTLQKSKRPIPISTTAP

SCRIB_1, Q14160 = molecular target: SCRIB_1, Q14160
Sequence of SCRIB_1, Q14160 (Q14160 718-814): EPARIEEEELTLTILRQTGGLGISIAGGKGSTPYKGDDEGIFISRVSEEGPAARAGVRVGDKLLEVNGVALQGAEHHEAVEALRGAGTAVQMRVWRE

HTRA3, P83110 = molecular target: T5, HTRA3, P83110
T5 sequence (P83110 354-453, limits assumed, looked up): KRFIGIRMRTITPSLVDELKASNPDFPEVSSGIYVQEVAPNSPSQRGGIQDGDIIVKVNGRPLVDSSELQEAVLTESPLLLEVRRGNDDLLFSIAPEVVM

TX1BP3, O14907 = molecular target: T6, TX1BP3, O14907
T6 sequence (O14907 10-122, limits assumed, looked up): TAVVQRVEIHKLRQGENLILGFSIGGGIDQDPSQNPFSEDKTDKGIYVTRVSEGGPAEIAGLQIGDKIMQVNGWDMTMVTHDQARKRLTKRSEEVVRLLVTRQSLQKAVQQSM

MAST2, Q6P0Q8 = molecular target: MAST2, Q6P0Q8
Sequence of MAST2, Q6P0Q8 (Q6P0Q8 1099-1202): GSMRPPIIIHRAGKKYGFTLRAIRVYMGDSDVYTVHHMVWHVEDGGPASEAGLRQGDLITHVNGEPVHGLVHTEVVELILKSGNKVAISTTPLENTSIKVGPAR

FRMPD1, Q5SYB0 = molecular target: T7, FRMPD1, Q5SYB0
T7 sequence (Q5SYB0 52-145, limits assumed, looked up): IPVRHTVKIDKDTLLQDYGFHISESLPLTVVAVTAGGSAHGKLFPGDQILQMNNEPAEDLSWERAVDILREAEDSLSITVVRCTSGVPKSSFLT

DLG4_1, P78352 = molecular target: DLG4_1, P78352
Sequence of DLG4_1, P78352 (P78352 62-152): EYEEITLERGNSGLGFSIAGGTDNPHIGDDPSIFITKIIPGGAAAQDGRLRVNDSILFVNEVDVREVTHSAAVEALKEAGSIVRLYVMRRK

DFNB31_2, Q9P202 = molecular target: T8, DFNB31_2, Q9P202
T8 sequence (Q9P202 274-371, limits assumed, looked up): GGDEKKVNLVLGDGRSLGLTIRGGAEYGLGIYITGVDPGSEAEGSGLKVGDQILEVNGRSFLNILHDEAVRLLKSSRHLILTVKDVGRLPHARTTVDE

LNX1_1, Q8TBB1 = molecular target: LNX1_1, Q8TBB1
Sequence of LNX1_1, Q8TBB1 (Q8TBB1 261-371): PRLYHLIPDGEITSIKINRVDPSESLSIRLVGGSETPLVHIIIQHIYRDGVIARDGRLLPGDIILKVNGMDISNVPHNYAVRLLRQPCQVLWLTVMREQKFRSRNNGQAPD

SNTB1, Q13884 = molecular target: T9, SNTB1, Q13884
T9 sequence (Q13884 107-205, limits assumed, looked up): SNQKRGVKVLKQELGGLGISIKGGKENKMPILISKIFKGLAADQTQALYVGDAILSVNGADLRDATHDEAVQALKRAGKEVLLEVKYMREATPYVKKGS

SNTA1, Q13424 = molecular target: T10, SNTA1, Q13424
T10 sequence (Q13424 82-180, limits assumed, looked up): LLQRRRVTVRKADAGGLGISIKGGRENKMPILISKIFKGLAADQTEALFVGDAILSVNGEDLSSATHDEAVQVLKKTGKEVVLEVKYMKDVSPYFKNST

GIPC2, Q8TF65 = molecular target: GIPC2, Q8TF65
Sequence of GIPC2, Q8TF65 (Q8TF65 112-203): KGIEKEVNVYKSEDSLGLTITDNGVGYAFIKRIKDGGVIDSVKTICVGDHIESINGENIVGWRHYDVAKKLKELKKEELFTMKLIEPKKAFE

SCRIB_2, Q14160 = molecular target: SCRIB_2, Q14160
Sequence of SCRIB_2, Q14160 (Q14160 857-960): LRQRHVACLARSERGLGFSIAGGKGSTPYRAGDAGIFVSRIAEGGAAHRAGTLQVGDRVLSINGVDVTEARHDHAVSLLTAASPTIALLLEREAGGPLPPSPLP

DLG4_3, P78352 = molecular target: DLG4_3, P78352
Sequence of DLG4_3, P78352 (P78352 306-403): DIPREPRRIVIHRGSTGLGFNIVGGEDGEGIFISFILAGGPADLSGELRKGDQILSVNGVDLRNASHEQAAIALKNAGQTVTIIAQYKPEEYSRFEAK

SCRIB_3, Q14160 = molecular target: SCRIB_3, Q14160
Sequence of SCRIB_3, Q14160 (Q14160 999-1103): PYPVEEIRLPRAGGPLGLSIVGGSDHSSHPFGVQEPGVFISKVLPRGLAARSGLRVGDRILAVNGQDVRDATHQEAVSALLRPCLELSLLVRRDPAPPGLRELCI

MPP6, Q9NZW5 = molecular target: T11, MPP6, Q9NZW5
T11 sequence (Q9NZW5 125-219, limits assumed, looked up): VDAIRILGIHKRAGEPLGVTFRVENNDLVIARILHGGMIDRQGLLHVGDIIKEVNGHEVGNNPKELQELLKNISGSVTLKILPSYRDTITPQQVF

GRIP2_7, Q9C0E4 = molecular target: GRIP2_7, Q9C0E4
Sequence of GRIP2_7, Q9C0E4 (Q9C0E4 934-1023): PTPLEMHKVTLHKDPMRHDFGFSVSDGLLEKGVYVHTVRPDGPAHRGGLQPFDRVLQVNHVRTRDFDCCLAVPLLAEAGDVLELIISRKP

MAGI2_2, Q86UL8 = molecular target: MAGI2_2, Q86UL8
Sequence of MAGI2_2, Q86UL8 (Q86UL8 410-522): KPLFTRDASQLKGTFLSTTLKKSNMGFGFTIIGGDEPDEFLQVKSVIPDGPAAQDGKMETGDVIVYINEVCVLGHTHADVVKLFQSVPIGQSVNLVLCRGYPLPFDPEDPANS

[1] = plain residues with an end cap or a label only (N-terminal biotin on a linker: ttds)
[2] = plain residues with an end cap or a label only (N-terminal biotin on a linker: ado-ado)

Sequence of GRIP2_5, Q9C0E4 (Q9C0E4 544-642): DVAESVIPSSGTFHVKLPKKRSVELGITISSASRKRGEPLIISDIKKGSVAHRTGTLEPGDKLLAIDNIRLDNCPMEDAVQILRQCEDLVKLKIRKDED
Sequence of GRIP2_6, Q9C0E4 (Q9C0E4 648-740): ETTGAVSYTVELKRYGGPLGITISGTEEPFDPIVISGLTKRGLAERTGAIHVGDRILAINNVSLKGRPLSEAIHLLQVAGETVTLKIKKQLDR

pKd (GRIP2_6, Q9C0E4; [1]): below the threshold
pKd (GRIP2_5, Q9C0E4; [1]): below the threshold
pKd (TJP3_3, O95049; [1]): below the threshold
pKd (PDZRN3_1, Q9UPQ7; [1]): 4.84
pKd (ARHGEF12, Q9NZN5-2; [1]): 4.34
pKd (GRID2IP_2, A4D2P6; [1]): 3.53
pKd (GRIP1_7, Q9Y3R0; [1]): below the threshold
pKd (MPP2, Q14168; [1]): below the threshold
pKd (GRID2IP_1, A4D2P6; [1]): below the threshold
pKd (LDB3, O75112; [1]): below the threshold
pKd (SCRIB_1, Q14160; [1]): 4.94
pKd (HTRA3, P83110; [1]): below the threshold
pKd (TX1BP3, O14907; [1]): 4.26
pKd (MAST2, Q6P0Q8; [1]): 4.78
pKd (FRMPD1, Q5SYB0; [1]): below the threshold
pKd (DLG4_1, P78352; [1]): below the threshold
pKd (DFNB31_2, Q9P202; [1]): below the threshold
pKd (LNX1_1, Q8TBB1; [1]): below the threshold
pKd (SNTB1, Q13884; [1]): 4.71
pKd (SNTA1, Q13424; [1]): 4.49
pKd (GIPC2, Q8TF65; [1]): below the threshold
pKd (SCRIB_2, Q14160; [1]): 3.65
pKd (DLG4_3, P78352; [1]): 4.03
pKd (SCRIB_3, Q14160; [1]): 5.07
pKd (MPP6, Q9NZW5; [1]): below the threshold
pKd (GRIP2_7, Q9C0E4; [1]): below the threshold
pKd (MAGI2_2, Q86UL8; [1]): 3.83
Binder: GARVSKETPL [MAPK12, P53778]

pKd (GRIP2_6, Q9C0E4; [2]): below the threshold
pKd (GRIP2_5, Q9C0E4; [2]): below the threshold
pKd (TJP3_3, O95049; [2]): below the threshold
pKd (PDZRN3_1, Q9UPQ7; [2]): below the threshold
pKd (ARHGEF12, Q9NZN5-2; [2]): 3.52
pKd (GRID2IP_2, A4D2P6; [2]): below the threshold
pKd (GRIP1_7, Q9Y3R0; [2]): below the threshold
pKd (MPP2, Q14168; [2]): 3.69
pKd (GRID2IP_1, A4D2P6; [2]): below the threshold
pKd (LDB3, O75112; [2]): below the threshold
pKd (SCRIB_1, Q14160; [2]): below the threshold
pKd (HTRA3, P83110; [2]): 4.01
pKd (TX1BP3, O14907; [2]): below the threshold
pKd (MAST2, Q6P0Q8; [2]): below the threshold
pKd (FRMPD1, Q5SYB0; [2]): below the threshold
pKd (DLG4_1, P78352; [2]): 3.62
pKd (DFNB31_2, Q9P202; [2]): below the threshold
pKd (LNX1_1, Q8TBB1; [2]): below the threshold
pKd (SNTB1, Q13884; [2]): below the threshold
pKd (SNTA1, Q13424; [2]): below the threshold
pKd (GIPC2, Q8TF65; [2]): below the threshold
pKd (SCRIB_2, Q14160; [2]): below the threshold
pKd (DLG4_3, P78352; [2]): below the threshold
pKd (SCRIB_3, Q14160; [2]): below the threshold
pKd (MPP6, Q9NZW5; [2]): below the threshold
pKd (GRIP2_7, Q9C0E4; [2]): below the threshold
pKd (MAGI2_2, Q86UL8; [2]): below the threshold
Binder: PDSYHRRDFW [U2AF2, P26368]

pKd (GRIP2_6, Q9C0E4; [2]): below the threshold
pKd (GRIP2_5, Q9C0E4; [2]): below the threshold
pKd (TJP3_3, O95049; [2]): below the threshold
pKd (PDZRN3_1, Q9UPQ7; [2]): 4.75
pKd (ARHGEF12, Q9NZN5-2; [2]): 3.49
pKd (GRID2IP_2, A4D2P6; [2]): 3.79
pKd (GRIP1_7, Q9Y3R0; [2]): below the threshold
pKd (MPP2, Q14168; [2]): below the threshold
pKd (GRID2IP_1, A4D2P6; [2]): below the threshold
pKd (LDB3, O75112; [2]): below the threshold
pKd (SCRIB_1, Q14160; [2]): 4.49
pKd (HTRA3, P83110; [2]): below the threshold
pKd (TX1BP3, O14907; [2]): 4.3
pKd (MAST2, Q6P0Q8; [2]): 5.47
pKd (FRMPD1, Q5SYB0; [2]): below the threshold
pKd (DLG4_1, P78352; [2]): 4.61
pKd (DFNB31_2, Q9P202; [2]): below the threshold
pKd (LNX1_1, Q8TBB1; [2]): 3.58
pKd (SNTB1, Q13884; [2]): 5.08
pKd (SNTA1, Q13424; [2]): 5.18
pKd (GIPC2, Q8TF65; [2]): 3.6
pKd (SCRIB_2, Q14160; [2]): 4.83
pKd (DLG4_3, P78352; [2]): below the threshold
pKd (SCRIB_3, Q14160; [2]): 4.91
pKd (MPP6, Q9NZW5; [2]): below the threshold
pKd (GRIP2_7, Q9C0E4; [2]): below the threshold
pKd (MAGI2_2, Q86UL8; [2]): 3.74
Binder: IGHEDLETAV [DGKI, O75912]
